Type in all cases: cell-based
The subject of assay [1] is NIH3T3-AXL cl.7 fibroblasts. The experiment in a line: AlamarBlue Gas6-induced proliferation assay. Particulars: 20 μg/ml antibody, with or without 400 ng/ml Gas6, 96 h. The procedure:
In vitro experiments were conducted in order to determine the ability of the rat anti-AXL antibodies of the invention to inhibit Gas6-induced cell proliferation. For this purpose, 2,500 NIH3T3-AXL cl.7 fibroblasts per well were seeded in FCS-containing medium on 96 well plates over night. […] Cells were treated with or without 400 ng/ml mouse Gas6 (R&D Systems) by adding ligand directly to the antibody solution, and were then left to grow for 96 h. AlamarBlue™ (BIOSOURCE #DAL1100) was added and incubated at 37° C. in the dark. Absorbance was measured at 590 nm every 30 min. The data were taken 4 h after addition of AlamarBlue™.
(In general: Alamar Blue is a resazurin reagent that responds to reducing activity.)

Assay [2] relates to serum-starved NIH3T3-AXL cl.7 fibroblasts. The experiment in a line: Caspase-3/7 assay, Gas6-mediated anti-apoptosis. The conditions noted are these: 10 μg/ml antibody, with or without 400 ng/ml Gas6, compared to isotypic control antibody. The source says:
Induction of apoptosis and activation of caspases can result from a variety of stimuli including growth factor withdrawal, exposure to chemotherapeutic agents or radiation, or initiation of the Fas/Apo-1 receptor-mediated cell death process. […] In the present example we examined whether rat anti-AXL antibodies of the invention interfere with Gas6-mediated anti-apoptosis of serum-starved NIH3T3-AXL cl.7 fibroblasts, and thus induce apoptosis. Apoptosis rates were thereby determined by measurement of the cellular caspase-3/7 activity. For this purpose, NIH3T3-AXL cl.7 cells were seeded at a density of 1.5×10^3 cells per well in black clear-bottom 96 well plates (100 μl/well). The day after, normal growth medium was replaced by serum-reduced medium (DMEM, 0.5% FCS) to starve cells over night for 24 h. […] The cells were washed with PBS, covered with 60 μl of DMEM, 0% FCS, 0.01% BSA, and 10 μl of the respective antibody solution were added. After 1 h incubation at 37° C., 10 μl of DMEM, 0% FCS, 0.01% BSA with or without 3.2 μg/ml mouse Gas6 (R&D Systems) were added (the final concentrations of antibody and Gas6 were 10 μg/ml and 400 ng/ml, respectively), and cells were incubated at 37° C. for another 5 h. […] Using a Victor plate reader (Perkin Elmer), the fluorescence of each well was measured at an excitation wavelength of 485 nm and an emission wavelength of 530 nm.

For assay [3], the target named is T1, AXL (Homo sapiens, UniProt P30530).
T1 sequence (P30530 26-894): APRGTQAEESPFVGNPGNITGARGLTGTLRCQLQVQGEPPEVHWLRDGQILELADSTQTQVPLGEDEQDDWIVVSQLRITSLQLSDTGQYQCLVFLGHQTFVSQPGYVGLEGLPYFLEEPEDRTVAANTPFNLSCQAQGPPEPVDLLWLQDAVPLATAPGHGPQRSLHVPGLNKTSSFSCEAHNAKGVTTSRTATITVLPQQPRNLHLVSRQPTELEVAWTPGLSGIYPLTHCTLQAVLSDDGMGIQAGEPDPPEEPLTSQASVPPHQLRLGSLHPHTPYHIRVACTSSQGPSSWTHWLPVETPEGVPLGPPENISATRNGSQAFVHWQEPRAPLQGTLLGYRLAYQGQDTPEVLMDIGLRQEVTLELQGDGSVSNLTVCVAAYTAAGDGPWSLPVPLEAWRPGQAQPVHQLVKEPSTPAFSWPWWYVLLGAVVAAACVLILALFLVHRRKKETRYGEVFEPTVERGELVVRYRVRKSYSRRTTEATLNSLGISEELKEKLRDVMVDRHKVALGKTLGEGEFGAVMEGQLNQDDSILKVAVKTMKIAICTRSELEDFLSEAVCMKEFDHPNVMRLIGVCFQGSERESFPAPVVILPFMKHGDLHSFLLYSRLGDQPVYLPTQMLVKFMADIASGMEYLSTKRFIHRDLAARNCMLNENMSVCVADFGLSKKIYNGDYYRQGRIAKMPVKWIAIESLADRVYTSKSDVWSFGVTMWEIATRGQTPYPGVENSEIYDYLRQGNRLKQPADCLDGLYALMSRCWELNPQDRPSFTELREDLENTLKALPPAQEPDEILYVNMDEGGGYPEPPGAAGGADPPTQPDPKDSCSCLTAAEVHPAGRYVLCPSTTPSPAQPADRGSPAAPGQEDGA
The experiment in a line: AXL receptor tyrosine phosphorylation ELISA. Also noted: expressed in transfected cells; host or cells: NIH3T3-AXL cl.7 (pLXSN-hAXL) and NCI-H292 lung cancer cells (endogenous AXL). The conditions noted are these: 10 μg/ml antibody, 400 ng/ml Gas6; NIH3T3-AXL cl.7 fibroblasts and NCI-H292 lung cancer cells. The procedure: ELISA experiments were performed in order to investigate whether the rat anti-AXL antibodies of the invention are able to block ligand Gash-mediated activation of AXL. Gas6-mediated AXL activation was detected by increased receptor tyrosine phosphorylation. In brief, on day 1, 3×10^4 cells per well were seeded in normal growth medium in flat-bottom 96 well plates. The next day, growth medium was replaced by serum-free medium to starve cells over night for 24 h. Also over night, black Maxi-Sorp 96 well plates (Nunc) were coated with mouse anti-phospho-tyrosine antibody 4G10 at 2 μg/ml PBS and 4° C. On day 3, the 4G10 antibody solution was removed and Maxi-Sorp wells were blocked with PBS, 0.5% BSA for at lest 4 h at room temperature. […] Medium was then flicked out and cells were lysed in lysis buffer (50 mM HEPES, pH 7.5, 150 mM NaCl, 1 mM EDTA, 10% glycerine, and 1% Triton X-100) supplemented with phosphatase and protease inhibitors (10 mM Na4P2O7, 1 mM phenylmethylsulfonyl fluoride, 1 mM orthovanadate, 1 mM NaF, and 0.5% aprotinin) for 30 min on ice. […] Using a Victor plate reader (Perkin Elmer), the fluorescence of each well was collected at an excitation wavelength of 430 nm and an emission wavelength of 580 nm.

B1: 11B7: antagonistic rat anti-AXL monoclonal antibody, rat IgG1 (antibody, V domains shown)
VL: DIQMTQAPSSLPASLGDRVTITCRASQDIGNYLRWFQQKPGKSPRLMISGATNLAAGVPSRFSGSRSGSDYSLTISSLESEDMADYYCLQSKESPWTFGGGTKLELK
VH: EVQLQESGPGLVKPSQSLSLTCSVTGYSITSNYWGWIRKFPGDKMEWMGYITYSGSTSYNPSLKSRISITRDTSKNQFFLQLNSVTSEDTATYYCAITTFYYWGQGVMVTVSS
Turning to B1, the cell proliferation entry in assay [1] was “blocked Gas6-induced proliferation”. Also, the “anti-apoptosis (caspase-3/7 activity)” value in assay [2] was “reduced Gas6-mediated anti-apoptosis”. For the same molecule, the “ligand-mediated AXL activation (phosphorylation)” value in assay [3] is “able to block or reduce ligand-mediated AXL activation”.

For the origin of these results see patent US8933202B2, “AXL antibodies” (U3 Pharma GmbH, priority 2007, dated 2015).
